Consider 14 molecules from patent US20170044238A1 (NATIONAL RESEARCH COUNCIL OF CANADA, published 2017).

The target of the test is T1, protein A (UniProt P38507 37-477).
T1 construct: Bought (Pierce); immobilized on CM5 chip by amine coupling; also called recombinant protein A
Put plainly: SPR (Biacore 3000), VH over immobilized protein A. Here is the method:
Immobilizations were carried out at 50 μg/mL in 10 mM acetate buffer, pH 4.5, using the amine coupling kit supplied by the manufacturer (GE Healthcare). All measurements were carried out at 25° C. in HBS-EP buffer at a flow rate of 50 μL/min. Surfaces were regenerated by washing with the running buffer.

Changes are numbered by the printed parent chain.

B1: HVHAm302 (antibody, V domains shown)
VH: QVQLVESGGGLIKPGGSLRLSCAASGDTVSDESMTWVRQAPGKGLEWVSAISSSGGSTYYADSVKGRFTISRDNSKNTVYLQMNSLRAEDTAVYYCVTDNRSCQTSLCTSTTRSWGQGTMVTVSS
notes: Human VH single-domain antibody (wild-type), tested alone; monomer peak used for SPR; tag not specified
For B1, binding was put at a Kd of 3 µM.

B2: HVHAm302S (antibody, V domains shown)
VH: B1 VH with S49C, I70C
notes: Cys49/Cys69 (Kabat) mutant of HVHAm302; VH single-domain antibody; tag not specified
Turning to B2, binding was characterised by a dissociation constant (Kd) of 10 µM.

B3: HVHB82S (antibody, V domains shown)
VH: QVQLQESGGGLVQPGGSLRLSCAASGFTFSSYAMSWVRQAPGKGLEWVCAISGSGGSTYYADSVKGRFTCSRDNSKNTLYLQMNSLRAEDTAVYYCGTDMEVWGKGTTVTVSS
notes: Cys49/Cys69 (Kabat) mutant of HVHB82; VH single-domain antibody; tag not specified
The molecule B3 yielded a Kd of 1.2 µM.

B4: HVHP420S (antibody, V domains shown)
VH: QVQLVESGGGLVKPGGSLRLSCAASGFTFSNAWMTWVRQAPGKGLEWVCRIKTKTDGGTTDYAAPVKGRFTCSRDDSKNTLYLQMNSLKTEDTAVYYCTTDRDHSSGSWGQGTLVTVSS
notes: Cys49/Cys69 (Kabat) mutant of HVHP420; VH single-domain antibody; tag not specified
B4: the Kd came to 2.2 µM.

B5: HVHAm427 (antibody, V domains shown)
VH: QVQLVESGGGLIKPGGSLRLSCAASGVTLSPECMAWVRQAPGKGLEWVSAISSSGGSTYYADSVKGRFTISRDNSKNTVYLQMNSLRAEDTAVYYCVSCEGENAFWGQGTMVTVSS
notes: Human VH single-domain antibody (wild-type), tested alone; tag not specified
In the case of B5, binding was put at a Kd of 1.6 µM.

B6: HVHAm427S (antibody, V domains shown)
VH: B5 VH with S49C, I70C
notes: Cys49/Cys69 (Kabat) mutant of HVHAm427; VH single-domain antibody; tag not specified
B6 yielded a Kd of 4 µM.

B7: HVHPC235 (antibody, V domains shown)
VH: QVQLVESGGGLIKPGGSLRLSCAASGFSVISESMTWVRQAPGKGLEWVSAISSSGGSTYYADSVKGRFTISRDNSKNTVHLQMNSLRADDTAVYYCAAKKIDGARYDYWGQGTMVTVSS
notes: Human VH single-domain antibody (wild-type), tested alone; tag not specified; also called HVHAmC235; HVHC235
In turn, B7 showed a Kd of 0.3 µM.

B8: HVHP421S (antibody, V domains shown)
VH: QLQLQESGGGVVQPGRSLRLSCAASGFTFSSYAMSWVRQAPGKGLEWVCAISGSGGSTYYADSVKGRFTCSRDNSKNTLYLQMNSLRAEDTAVYYCAKDGKGGSSGYDHPDYWGQGTLVTVSS
notes: Cys49/Cys69 (Kabat) mutant of HVHP421; VH single-domain antibody; tag not specified
B8 displayed a Kd of 2.8 µM.

B9: HVHAm431 (antibody, V domains shown)
VH: QVQLVESGGGLIKPGGSLRLSCAASGYTVSSECMGWVRQAPGKGLEWVSAISSSGGSTYYADSVKGRFTISRDNSKNTVYLQMNSLRAEDTAVYYCVRDSKNCHDKDCTRPYCSWGQGTMVTVSS
notes: as for B5
B9 displayed a Kd of 4 µM.

B10: HVHAm431S (antibody, V domains shown)
VH: B9 VH with S49C, G55S, I70C
notes: Cys49/Cys69 (Kabat) mutant of HVHAm431; VH single-domain antibody; tag not specified
In turn, B10 registered a Kd of 8 µM.

B11: HVHP413S (antibody, V domains shown)
VH: QVQLVQSGGGLVKPGGSLRLSCAASGFTFSDYYMSWVRQAPGKGLEWVCFIYSGGSTYYADSVKGRFTCSRDNSKNTLYLQMNSLRAEDTAVYYCARESRVGGGAFDIWGQGTMVTVSS
notes: Cys49/Cys69 (Kabat) mutant of HVHP413; VH single-domain antibody; tag not specified
On to B11, for which the Kd came to 1.5 µM.

B12: HVHP428S (antibody, V domains shown)
VH: QLQLQESGGGLVQPGGSLRLSCAASGFTFSSYAMSWFRQAPGKGLEWVCFIRSKAYGGTTEYAASVKGRFTCSRDDSKSIAYLQMNSLRAEDTAMYYCARRAKDGYNSPEDYWGQGTLVTVSS
notes: Cys49/Cys69 (Kabat) mutant of HVHP428; VH single-domain antibody; tag not specified
Molecule B12 showed a Kd of 1.6 µM.

B13: HVHP414S (antibody, V domains shown)
VH: DVQLVQSGGGLVKPGGSLRLSCTASGFPFSNAWMSWVRQAPGKGLEWVCRITSKTDGGTTDYVAPVKGRFTCSRDDSKNTLYLQMNSLKTEDTAVYYCTTDQANAFDIWGQGTMVTVSS
notes: Cys49/Cys69 (Kabat) mutant of HVHP414; VH single-domain antibody; tag not specified
Molecule B13 came in with a Kd of 1.8 µM.

B14: HVHP430S (antibody, V domains shown)
VH: QVQLVESGGGLIKPGGSLRLSCAASGFTFSNYAMSWVRQAPGKGLEWVCAISSSGGSTYYADSVKGRFTCSRDNSKNTVYLQMNSLRAEDTAVYYCVREEYRCSGTSCPGAFDIWGQGTMVTVSS
notes: Cys49/Cys69 (Kabat) mutant of HVHP430; VH single-domain antibody; tag not specified
For the molecule B14, binding was put at a Kd of 7.7 µM.

As usually defined, the Kd is the free concentration of one partner at which half of the binding sites on the other are occupied at equilibrium, for simple one-to-one binding. A low value points to tighter binding.
